Assay [1] deals with human CD47-IgV-Domain protein (human), Q08722. As to the kind of experiment: MST; human or mouse CD47-IgV-Domain protein labeled with NT-647, about 50 to 200 nM; unlabeled peptides or ligand protein diluted serially; 50 mM Tris, 150 mM NaCl, 10 mM MgCl2, 0.05% Tween-20, 0.5% DMSO, pH 7.5; 30 min at room temperature; 25°C.
Assay [2] has as its target T1, mouse CD47-IgV-Domain protein (mouse), Q61735.
T1 chain: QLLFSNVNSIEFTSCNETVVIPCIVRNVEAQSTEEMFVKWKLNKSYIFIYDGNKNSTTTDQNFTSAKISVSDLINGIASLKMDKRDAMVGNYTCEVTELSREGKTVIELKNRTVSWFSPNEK
Described as above.

Assay [3] concerns the target human CD47-IgV-Domain-hIg fusion protein (human), Q08722. As to the kind of experiment: flow cytometry on cells; competition: CD47-IgV-Domain-hIg (20 nM) incubated with titrating concentrations of peptide in PBS pH 7.4 for 1 hour at 4°C, then on SIRPα-overexpressing CHO cells 30 min at 4°C; PE-conjugated goat anti-human IgG; IC50 from sigmoidal dose response curves. Background: In flow cytometry, cells or beads pass a laser one at a time.

Assay [4] has as its target T2, mouse CD47-IgV-Domain-hIg fusion protein (mouse), Q61735.
T2 chain: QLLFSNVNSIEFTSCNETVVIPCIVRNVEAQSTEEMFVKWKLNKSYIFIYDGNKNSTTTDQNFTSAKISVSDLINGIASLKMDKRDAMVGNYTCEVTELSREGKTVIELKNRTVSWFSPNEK
The description is as above.

The record followed here is paper PMC7537338, “CD47/SIRPα blocking peptide identification and synergistic effect with irradiation for cancer immunotherapy” (Journal for Immunotherapy of Cancer, 2020).

Chain of human CD47-IgV-Domain protein (human), Q08722 (Q08722 19-141): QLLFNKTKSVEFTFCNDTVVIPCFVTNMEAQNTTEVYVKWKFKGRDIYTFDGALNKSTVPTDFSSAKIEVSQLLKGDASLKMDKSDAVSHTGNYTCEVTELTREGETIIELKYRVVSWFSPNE
Chain of human CD47-IgV-Domain-hIg fusion protein (human), Q08722 (Q08722 19-141): as above

For orientation: Kd means the concentration at which binding is half-saturated. Read a low Kd as a tighter complex. By IC50 is commonly meant the concentration needed to halve the response being measured. Read a high IC50 as weaker potency. For AWSATWSNYWRH (modifications not checked) [pep-20], the dissociation constant (Kd) in assay [1] worked out at 2.91 µM; in assay [2], 3.63 µM. For the same molecule, the concentration for half-maximal inhibition (IC50) came out at 24.6 µM in assay [3] and 12 µM in assay [4].
